In PMC9477392 (2022):

Target: T1, Atox1 (Homo sapiens, UniProt O00244)
T1 chain: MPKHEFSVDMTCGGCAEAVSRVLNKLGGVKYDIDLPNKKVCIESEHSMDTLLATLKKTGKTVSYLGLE
Assay: SPR

B1: Memo1 (protein)
chain: MSNRVVCREASHAGSWYTASGPQLNAQLEGWLSQVQSTKRPARAIIAPHAGYTYCGSCAAHAYKQVDPSITRRIFILGPSHHVPLSRCALSSVDIYRTPLYDLRIDQKIYGELWKTGMFERMSLQTDEDEHSIEMHLPYTAKAMESHKDEFTIIPVLVGALSESKEQEFGKLFSKYLADPSNLFVVSSDFCHWGQRFRYSYYDESQGEIYRSIEHLDKMGMSIIEQLDPVSFSNYLKKYHNTICGRHPIGVLLNAITELQKNGMNMSFSFLNYAQSSQCRNWQDSSVSYAAGALTVH
modifications: Cu(I)-loaded Atox1
Question: With B1 as the binder, how does the Kd read?
Answer: The Kd was 210 nM.
